Source: the supplement of paper PMC11316812
± gives the standard deviation of the averaged measurements.

Columns and labels:
[1] = system: hTERT-HMEC; assay: percentage of EdU-negative (G0-arrested) nuclei per well, 72 h; higher = more G0 arrest; details: reference: sequence is the full UniProt precursor, the tested protein was the secreted form or ectodomain
[2] = system: MCF7; assay: as above; details: reference: sequence is the full UniProt precursor, the tested protein was the secreted form or ectodomain
[3] = protein concentration 0.0240725 µM
[4] = protein concentration 0.240725 µM
[5] = protein concentration 0.0257143 µM
[6] = protein concentration 0.257143 µM
[7] = protein concentration 0.01547 µM
[8] = protein concentration 0.1547 µM
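Note: secreted proteins added to cultured cells, EdU pulse at the end, nuclei found by Hoechst imaging, EdU status from nuclear versus surrounding ring intensity ratio, PBS as neutral control.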

For “MGAGATGRAMDGPRLLLLLLLGVSLGGAKEACPTGLYTHSGECCKACNLGEGVAQPCGANQTVCEPCLDSVTFSDVVSATEPCKPCTECVGLQSMSAPCVEADDAVCRCAYGYYQDETTGRCEACRVCEAGSGLVFSCQDKQNTVCEECPDGTYSDEANHVDPCLPCTVCEDTERQLRECTRWADAECEEIPGRWITRSTPPEGSDSTAPSTQEPEAPPEQDLIASTVAGVVTTVMGSSQPVVTRGTTDNLIPVYCSILAAVVVGLVAYIAFKRWNSCKQNKQGANSRPVNQTPPPEGEKLHSDSGISVDSQSLHDQQPHTQTASGQALKGDGGLYSSLPPAKREEVEKLLNGSAGDTWRHLAGELGYQPEHIDSFTHEACPVRALLASWATQDSATLDALLAALRRIQRADLVESLCSESTATSPV”, the “percentage of EdU-negative” value [1, 3] was 4.77 ± 0.43%, the “percentage of EdU-negative” value [1, 4] was 4.6 ± 0.64% and the “percentage of EdU-negative” value [2, 3] was 24.6 ± 0.37%. The “percentage of EdU-negative” value [2, 4] was 23 ± 1.5%.
For “MAAERGARRLLSTPSFWLYCLLLLGRRAPGAAAARSGSAPQSPGASIRTFTPFYFLVEPVDTLSVRGSSVILNCSAYSEPSPKIEWKKDGTFLNLVSDDRRQLLPDGSLFISNVVHSKHNKPDEGYYQCVATVESLGTIISRTAKLIVAGLPRFTSQPEPSSVYAGNNAILNCEVNADLVPFVRWEQNRQPLLLDDRVIKLPSGMLVISNATEGDGGLYRCVVESGGPPKYSDEVELKVLPDPEVISDLVFLKQPSPLVRVIGQDVVLPCVASGLPTPTIKWMKNEEALDTESSERLVLLAGGSLEISDVTEDDAGTYFCIADNGNETIEAQAELTVQAQPEFLKQPTNIYAHESMDIVFECEVTGKPTPTVKWVKNGDMVIPSDYFKIVKEHNLQVLGLVKSDEGFYQCIAENDVGNAQAGAQLIILEHAPATTGPLPSAPRDVVASLVSTRFIKLTWRTPASDPHGDNLTYSVFYTKEGIARERVENTSHPGEMQVTIQNLMPATVYIFRVMAQNKHGSGESSAPLRVETQPEVQLPGPAPNLRAYAASPTSITVTWETPVSGNGEIQNYKLYYMEKGTDKEQDVDVSSHSYTINGLKKYTEYSFRVVAYNKHGPGVSTPDVAVRTLSDVPSAAPQNLSLEVRNSKSIMIHWQPPAPATQNGQITGYKIRYRKASRKSDVTETLVSGTQLSQLIEGLDRGTEYNFRVAALTINGTGPATDWLSAETFESDLDETRVPEVPSSLHVRPLVTSIVVSWTPPENQNIVVRGYAIGYGIGSPHAQTIKVDYKQRYYTIENLDPSSHYVITLKAFNNVGEGIPLYESAVTRPHTDTSEVDLFVINAPYTPVPDPTPMMPPVGVQASILSHDTIRITWADNSLPKHQKITDSRYYTVRWKTNIPANTKYKNANATTLSYLVTGLKPNTLYEFSVMVTKGRRSSTWSMTAHGTTFELVPTSPPKDVTVVSKEGKPKTIIVNWQPPSEANGKITGYIIYYSTDVNAEIHDWVIEPVVGNRLTHQIQELTLDTPYYFKIQARNSKGMGPMSEAVQFRTPKADSSDKMPNDQASGSGGKGSRLPDLGSDYKPPMSGSNSPHGSPTSPLDSNMLLVIIVSVGVITIVVVVIIAVFCTRRTTSHQKKKRAACKSVNGSHKYKGNSKDVKPPDLWIHHERLELKPIDKSPDPNPIMTDTPIPRNSQDITPVDNSMDSNIHQRRNSYRGHESEDSMSTLAGRRGMRPKMMMPFDSQPPQPVISAHPIHSLDNPHHHFHSSSLASPARSHLYHPGSPWPIGTSMSLSDRANSTESVRNTPSTDTMPASSSQTCCTDHQDPEGATSSSYLASSQEEDSGQSLPTAHVRPSHPLKSFAVPAIPPPGPPTYDPALPSTPLLSQQALNHHIHSVKTASIGTLGRSRPPMPVVVPSAPEVQETTRMLEDSESSYEPDELTKEMAHLEGLMKDLNAITTA”, the “percentage of EdU-negative” value [1, 5] was 6.13 ± 1.3%, the “percentage of EdU-negative” value [1, 6] was 12.3 ± 1.7% and the “percentage of EdU-negative” value [2, 5] was 24 ± 1.2%. For the same sequence, the “percentage of EdU-negative” value [2, 6] was 26.44 ± 0.25%.
In the case of “MSWSLHPRNLILYFYALLFLSSTCVAYVATRDNCCILDERFGSYCPTTCGIADFLSTYQTKVDKDLQSLEDILHQVENKTSEVKQLIKAIQLTYNPDESSKPNMIDAATLKSRKMLEEIMKYEASILTHDSSIRYLQEIYNSNNQKIVNLKEKVAQLEAQCQEPCKDTVQIHDITGKDCQDIANKGAKQSGLYFIKPLKANQQFLVYCEIDGSGNGWTVFQKRLDGSVDFKKNWIQYKEGFGHLSPTGTTEFWLGNEKIHLISTQSAIPYALRVELEDWNGRTSTADYAMFKVGPEADKYRLTYAYFAGGDAGDAFDGFDFGDDPSDKFFTSHNGMQFSTWDNDNDKFEGNCAEQDGSGWWMNKCHAGHLNGVYYQGGTYSKASTPNGYDNGIIWATWKTRWYSMKKTTMKIIPFNRLTIGEGQQHHLGGAKQVRPEHPAETEYDSLYPEDDL”, the “percentage of EdU-negative” value [1, 7] is reported as 5.07 ± 0.17%, the “percentage of EdU-negative” value [1, 8] is reported as 5.92 ± 0.15% and the “percentage of EdU-negative” value [2, 7] is reported as 24 ± 1.3%. For the same sequence, the “percentage of EdU-negative” value [2, 8] was 25 ± 2%.
